Molecular target: the molecule itself
Assay: cryo-EM structure

B1: N-terminally truncated zebrafish NKCC1 (domain or fragment)
chain: KFGWIKGVLVRCMLNIWGVMLFIRMTWIVGQAGIAYSCIIVIMATVVTTITGCSTSAIATNGFVRGGGAYYLISRSLGPEFGGSIGLIFAFANAVAVAMYVVGFAETVVELLMDSGLLMIDQTNDIRVIGTITVILLLGISVAGMEWEAKAQIFLLVILITAIFNYFIGSFIAVDSKKKFGFFSYDAGILAENFGPDFRGQTFFSVFSIFFPAATGILAGANISGDLADPQMAIPKGTLLAILITGLVYVGVAISAGACIVRDATGIESNFTLISNCTDAACKYGYDFSSCRPTVEGEVSSCKFGLHNDFQVMSVVSGFSPLISAGIFSATLSSALASLVSAPKVFQALCKDNIYPGIAIFGKGYGKNNEPLRGYFLTFGIALAFILIAELNVIAPIISNFFLASYALINFSVFHASLANSPGWRPSFKYYNMWASLAGAILCCVVMFIINWWAALLTNVIVLSLYIYVSYKKPDVNWGSSTQALTYHQALTHSLQLCGVADHIKTFRPQCLVMTGAPNSRPAILHLVHAFTKNVGLMLCGHVRISSRRPNFKELNSDMLRYQRWLLNNNSKAFYTCVVAEDLRQGTQYMLQAAGLGRLRPNTLVIGFKNDWRTGDIKEVETYINLIHDAFDFQYGVVILRLREGLDISHIQGQDDSSGMKDVVVSVDISKDSDGDSSKPSSKATSVQNSPAVQKDEDDDGKAHTQPLLKKDKKSPTVPLNVADQRLLDASQQFQQKQGKGTVDVWWLFDDGGLTLLIPYLIANKKKWKDCKIRVFIGGKINRIDHDRRAMATLLSKFRIDFSDITVLGDINTKPKSEGLTEFAEMIEPYKLREDDMEQEAAEKLKSEEPWRITDNELELYKAKGNRQIRLNELLKEHSSTANLIVMSMPLARKGAVSSALYMAWLDTLSKDLPPILLVRGNHQSVLTFYS
  stoichiometry N: 2

Reference: publication PMC6856059 (Nature, 2019)
